Experimental data published in article PMC8044456, “Tandem UGT71B5s Catalyze Lignan Glycosylation in Isatis indigotica With Substrates Promiscuity” (Frontiers in Plant Science, 2021).

Experiments:
Test in all cases: LC/MS glucosylation assay, Lineweaver-Burk
Format in all cases: biochemical, Isatis tinctoria
Details in all cases: 2 mM UDP-glucose, 20–200 μM acceptor, 100 mM phosphate pH 8.0, 30°C
[1] = substrate: COc1cc(C[C@H]2COC(=O)[C@@H]2Cc2ccc(O)c(OC)c2)ccc1O
Source text: (§1) LC/MS glucosylation assay, Lineweaver-Burk on IiUGT71B5b

[2] = substrate: Oc1cc2c(cc1[C@H]1OC[C@H]3[C@@H]1CO[C@@H]3c1ccc3c(c1)OCO3)OCO2
Source text: as §1

[3] = substrate: COc1cc(C[C@H]2COC(=O)[C@@H]2Cc2ccc(O)c(OC)c2)ccc1O; remark: listed apart in the source
Source text: (§2) LC/MS glucosylation assay, Lineweaver-Burk on IiUGT71B5a

[4] = substrate: COc1cc(C[C@@H](CO)[C@H](CO)Cc2ccc(O)c(OC)c2)ccc1O
Source text: as §2

[5] = substrate: Oc1cc2c(cc1[C@H]1OC[C@H]3[C@@H]1CO[C@@H]3c1ccc3c(c1)OCO3)OCO2; remark: listed apart in the source
Source text: as §2

[6] = substrate: [H][C@@]1(Oc2ccc([C@H]3OC[C@]4([H])[C@@H](c5ccc(O)c(OC)c5)OC[C@]34[H])cc2OC)O[C@H](CO)[C@@H](O)[C@H](O)[C@H]1O
Source text: as §2

[7] = substrate: COc1cc([C@@H]2OC[C@@H]3[C@H]2CO[C@H]3c2ccc(O)c(OC)c2)ccc1O
Source text: as §2

[8] = substrate: COc1cc(C[C@H]2CO[C@H](c3ccc(O)c(OC)c3)[C@H]2CO)ccc1O
Source text: as §2

B1: IiUGT71B5b (Isatis tinctoria) (protein)
chain: MKIELVFMPSPGIGHLRSTVQLAKQLVNGDDRLSITVIIIPRSSGGDATDSAQISSLFTASQDRLRYESISVADEPTTNRLPTQHYIASQKPQVRDAVAKLIDPTRVDSPPRLAGFVVDMFCISMIDLADEFGVPTYMVYTSNARFLGITLHLQLMIDEKKYDATELDESVNELEFPCLTRPYPVDCLPHILISKDYLFMDQARSYRKMKGILVNTVAELEPHALELFSGDGDLPRAYPVGPVLHLESRSDHSNDDGKQSEILRWLDEQPAKSVVFLCFGSMGGFNEEQAREIAVALDRSGHRFLWSLRRASPDIMKEGPRDYTNLDEVLPEGFLDRTSERGKIIGWAPQAAVLAKPAIGGFVTHCGWNSMLESLWFGVPTVTWPLYAEQKVNAFEMVEELGLAVEIRRSLKGDLMFGGMETVTAEDIERAIRRVMEQGSDVRNRVKEMAEKCHVALTDGGSSKAALRKFIEDVVENVAA
notes: full-length ORF 1,443 bp, 480 aa; pET-32a+ tagged recombinant, E. coli BL21(DE3), Ni-NTA; tag removal not mentioned; gene in tandem cluster Ii4G26670/Ii4G26680/Ii4G26690 (Ii4G26690 = IiUGT71B5c); genome VHIU00000000
Km [1]: 61.34 ± 1.48 µM | Vmax [1]: 2.41e-05 µmol/min | kcat [1]: 0.0277 s⁻¹ | kcat/Km [1]: 451 M⁻¹ s⁻¹ | Km [2]: 135.48 ± 10.90 µM | Vmax [2]: 0.000125 µmol/min | kcat [2]: 0.143 s⁻¹ | kcat/Km [2]: 1060 M⁻¹ s⁻¹

B2: IiUGT71B5a (Isatis tinctoria) (protein)
chain: MKIELVFIPSPGIGHLRSTVELAKQLVNGDDRLSITVIIIPRSSGGDATDSAQISSLFAASQDRLRYETISVADEPTADRLPTQLYIKNQKPQVRDAVAKILDPARVDSPPRLAGFVVDMFCTSMIDLADEFGVPTYMVYTSNATFLGITLHLQLMLDEKKYDTSELDESVNELEFPCLTRPYPVECLPYLFISKEWLPFFMDQARSFRKMKGILVNTVAELEPHALELFSGDDDLPRAYPVGPVLHLESGSDNSNDDGKQSEILRWLDDQPAKSVVFLCFGSMGGFNEEQTREIAVALDRSGHRFLWSLRRASPDILKQGPGDYTDLDEVLPEGFLDRTLERGKIIGWAPQAAVLAKPAIGGFVTHCGWNSMLESLWFGVPMVTWPLYAEQKVNAFVMVEELGLAVEIRRSLKGDLMAGGMETVAAEDIERAIRRVMEQDSDVRNRVKEMAEKCHVALTDGGSSQVALRKFIQDVIENVVV
notes: full-length ORF 1,449 bp, 482 aa; pET-32a+ tagged recombinant, E. coli BL21(DE3), Ni-NTA; tag removal not mentioned; gene in tandem cluster Ii4G26670/Ii4G26680/Ii4G26690 (Ii4G26690 = IiUGT71B5c); genome VHIU00000000
Km [3]: 62.35 ± 1.53 µM | Vmax [3]: 3.5e-05 µmol/min | kcat [3]: 0.0403 s⁻¹ | kcat/Km [3]: 646 M⁻¹ s⁻¹ | Km [4]: 168.48 ± 9.18 µM | Vmax [4]: 8.34e-05 µmol/min | kcat [4]: 0.0961 s⁻¹ | kcat/Km [4]: 571 M⁻¹ s⁻¹ | Km [5]: 48.00 ± 0.79 µM | Vmax [5]: 0.00049 µmol/min | kcat [5]: 0.563 s⁻¹ | kcat/Km [5]: 11700 M⁻¹ s⁻¹ | Km [6]: 136.06 ± 6.56 µM | Vmax [6]: 0.000111 µmol/min | kcat [6]: 0.128 s⁻¹ | kcat/Km [6]: 939 M⁻¹ s⁻¹ | Km [7]: 67.16 ± 2.00 µM | Vmax [7]: 6.12e-05 µmol/min | kcat [7]: 0.07 s⁻¹ | kcat/Km [7]: 1040 M⁻¹ s⁻¹ | Km [8]: 568.29 ± 16.08 µM | Vmax [8]: 0.000141 µmol/min | kcat [8]: 0.162 s⁻¹ | kcat/Km [8]: 285 M⁻¹ s⁻¹
